{
  "source": "patent US20120128758A1",
  "binders": {"B1": {"name": "SP62 peptide (gp41 652-671), … (peptide)", "peptide": "QQEKNEQELLELDKWASLWN", "modifications": "not checked"}},
  "target": "mAb 2F5",
  "assay": "cell-based or functional assay",
  "data": [
    {"binder": "B1", "values": [
      {"measurement": "IC50 of 2F5 mAb against TND-669S pseudovirus after pre-absorption with 0.3 µM peptide", "result": 0.911, "unit": "µg/mL"}
    ]}
  ]
}
